Laboratory results: US6713265
Read-outs that look alike come from different tables or passages of the source. Values belong to the substance of their own block, whether it stands above or below them.

Tests used:
[1] = molecular target: human Y5 receptor (human) (UniProt Q15761); assay: 125I-PYY displacement, LM(tk-) membranes
rat Y1 receptor (rat) = rat Y1 receptor (rat) (UniProt P21555); assay: 125I-PYY displacement, COS-7 membranes
rat Y4 receptor (rat) = rat Y4 receptor (rat) (UniProt Q63447); assay: 125I-PYY displacement, COS-7 membranes
Sequence of rat Y4 receptor (rat) (Q63447 whole entry): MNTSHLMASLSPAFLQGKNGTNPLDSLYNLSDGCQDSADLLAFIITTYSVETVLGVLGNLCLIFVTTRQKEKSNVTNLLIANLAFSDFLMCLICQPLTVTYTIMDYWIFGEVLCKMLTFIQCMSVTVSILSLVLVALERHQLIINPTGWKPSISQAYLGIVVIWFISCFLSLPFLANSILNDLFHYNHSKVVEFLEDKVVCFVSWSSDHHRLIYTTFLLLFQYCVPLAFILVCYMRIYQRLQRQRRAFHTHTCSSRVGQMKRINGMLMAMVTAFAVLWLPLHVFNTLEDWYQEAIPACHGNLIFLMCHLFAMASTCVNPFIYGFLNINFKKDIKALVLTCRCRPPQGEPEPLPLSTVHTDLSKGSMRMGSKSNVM

rat Y2 receptor (rat) = rat Y2 receptor (rat) (UniProt Q9ERC0); assay: 125I-PYY displacement, COS-7 membranes
Sequence of rat Y2 receptor (rat) (Q9ERC0 entry or part of it): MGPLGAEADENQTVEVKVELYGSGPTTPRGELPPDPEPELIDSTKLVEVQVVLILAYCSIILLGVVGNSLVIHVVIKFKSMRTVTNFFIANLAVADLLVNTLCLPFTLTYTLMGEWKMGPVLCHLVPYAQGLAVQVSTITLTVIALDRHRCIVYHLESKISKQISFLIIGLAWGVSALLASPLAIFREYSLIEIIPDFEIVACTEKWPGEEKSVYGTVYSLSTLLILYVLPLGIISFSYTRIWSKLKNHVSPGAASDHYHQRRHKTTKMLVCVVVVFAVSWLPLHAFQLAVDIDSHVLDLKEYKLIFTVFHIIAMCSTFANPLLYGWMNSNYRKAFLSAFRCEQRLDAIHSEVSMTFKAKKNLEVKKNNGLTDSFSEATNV

[2] = molecular target: rat hypothalamic Y5 receptor (rat) (UniProt Q63634); assay: cell-based or functional assay
Sequence of rat hypothalamic Y5 receptor (rat) (Q63634 other isoform, or with tags, fused parts or gaps): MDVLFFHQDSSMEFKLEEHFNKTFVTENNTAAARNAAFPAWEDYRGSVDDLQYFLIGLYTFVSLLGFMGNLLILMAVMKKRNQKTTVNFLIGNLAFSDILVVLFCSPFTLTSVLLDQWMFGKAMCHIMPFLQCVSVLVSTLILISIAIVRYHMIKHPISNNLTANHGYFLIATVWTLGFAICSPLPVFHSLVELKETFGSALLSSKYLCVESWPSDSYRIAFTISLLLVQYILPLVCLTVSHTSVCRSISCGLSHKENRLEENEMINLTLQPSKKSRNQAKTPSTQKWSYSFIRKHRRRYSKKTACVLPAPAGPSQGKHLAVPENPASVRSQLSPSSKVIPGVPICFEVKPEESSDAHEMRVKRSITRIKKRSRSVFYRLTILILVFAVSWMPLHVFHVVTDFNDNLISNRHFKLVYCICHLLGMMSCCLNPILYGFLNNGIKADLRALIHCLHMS

[3] = molecular target: human Y5 receptor (human) (UniProt Q15761); assay: 125I-PYY displacement, COS-7 membranes
[4] = molecular target: rat hypothalamic Y5 receptor (rat) (UniProt Q63634); assay: 125I-PYY displacement, COS-7 membranes
[5] = molecular target: human Y5 receptor (human) (UniProt Q15761); assay: 125I-PYY3-36 displacement, LM(tk-) membranes
[6] = molecular target: canine Y5 receptor (canine) (UniProt O62729); assay: 125I-PYY displacement, COS-7 membranes
Sequence of canine Y5 receptor (canine) (O62729 other isoform, or with tags, fused parts or gaps): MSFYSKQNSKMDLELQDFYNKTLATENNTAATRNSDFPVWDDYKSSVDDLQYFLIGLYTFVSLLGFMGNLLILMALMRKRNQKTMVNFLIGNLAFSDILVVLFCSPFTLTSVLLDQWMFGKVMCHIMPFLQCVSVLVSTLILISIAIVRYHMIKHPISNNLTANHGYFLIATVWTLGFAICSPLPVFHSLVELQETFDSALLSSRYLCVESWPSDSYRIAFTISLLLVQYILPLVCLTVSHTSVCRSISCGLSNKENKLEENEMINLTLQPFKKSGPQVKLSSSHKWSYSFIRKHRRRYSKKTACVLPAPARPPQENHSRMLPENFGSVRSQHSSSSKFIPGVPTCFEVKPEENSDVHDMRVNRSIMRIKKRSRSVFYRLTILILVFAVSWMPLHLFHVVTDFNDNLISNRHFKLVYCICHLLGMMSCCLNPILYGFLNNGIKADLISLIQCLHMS

[7] = molecular target: human Y1 receptor (human) (UniProt P25929); assay: 125I-PYY displacement, COS-7 membranes
Sequence of human Y1 receptor (human) (P25929 whole entry): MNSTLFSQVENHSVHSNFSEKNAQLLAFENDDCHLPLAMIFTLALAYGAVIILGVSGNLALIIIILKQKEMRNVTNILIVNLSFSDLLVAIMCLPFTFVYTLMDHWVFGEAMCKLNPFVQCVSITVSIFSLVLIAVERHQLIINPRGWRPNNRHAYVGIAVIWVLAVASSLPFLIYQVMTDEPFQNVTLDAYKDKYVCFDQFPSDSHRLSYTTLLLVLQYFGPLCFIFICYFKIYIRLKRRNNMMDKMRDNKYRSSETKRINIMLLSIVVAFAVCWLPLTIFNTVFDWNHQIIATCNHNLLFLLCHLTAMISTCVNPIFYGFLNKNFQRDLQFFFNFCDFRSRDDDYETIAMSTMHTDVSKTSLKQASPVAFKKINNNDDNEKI

[8] = molecular target: rat hypothalamic Y5 receptor (rat) (UniProt Q63634); assay: 125I-PYY displacement, COS-7 membranes; remark: listed apart in the source
[9] = molecular target: human Y4 receptor (human) (UniProt P50391); assay: 125I-PYY displacement, COS-7 membranes
Sequence of human Y4 receptor (human) (P50391 whole entry): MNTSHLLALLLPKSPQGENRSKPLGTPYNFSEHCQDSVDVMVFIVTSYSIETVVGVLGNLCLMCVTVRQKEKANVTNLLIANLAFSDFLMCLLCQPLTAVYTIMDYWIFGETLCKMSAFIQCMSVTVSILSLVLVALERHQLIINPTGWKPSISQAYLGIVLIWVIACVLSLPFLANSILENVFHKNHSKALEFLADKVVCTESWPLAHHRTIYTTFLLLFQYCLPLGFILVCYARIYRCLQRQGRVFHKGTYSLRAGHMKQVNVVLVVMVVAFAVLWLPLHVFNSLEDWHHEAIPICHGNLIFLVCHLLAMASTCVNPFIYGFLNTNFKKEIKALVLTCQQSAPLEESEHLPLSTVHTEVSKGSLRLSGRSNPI

[10] = molecular target: human Y2 receptor (human) (UniProt P49146); assay: 125I-PYY displacement, COS-7 membranes
Sequence of human Y2 receptor (human) (P49146 whole entry): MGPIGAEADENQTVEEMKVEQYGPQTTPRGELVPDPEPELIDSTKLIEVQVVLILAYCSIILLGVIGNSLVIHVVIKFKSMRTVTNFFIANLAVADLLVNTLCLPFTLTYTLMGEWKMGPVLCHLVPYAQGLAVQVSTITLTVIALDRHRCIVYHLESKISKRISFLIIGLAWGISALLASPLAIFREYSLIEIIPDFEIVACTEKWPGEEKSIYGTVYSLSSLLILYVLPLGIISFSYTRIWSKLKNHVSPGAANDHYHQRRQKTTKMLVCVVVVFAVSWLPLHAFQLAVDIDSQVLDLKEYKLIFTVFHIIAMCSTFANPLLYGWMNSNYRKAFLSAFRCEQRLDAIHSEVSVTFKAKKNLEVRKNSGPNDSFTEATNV

[11] = molecular target: rat hypothalamic membranes (NPY/PYY binding sites); assay: 125I-PYY displacement, rat hypothalamic membranes
[12] = molecular target: rat hypothalamic membranes (NPY/PYY binding sites); assay: 125I-PYY3-36 displacement, rat hypothalamic membranes
[13] = molecular target: rat hypothalamic Y5 receptor (rat) (UniProt Q63634); assay: 125I-PYY displacement, COS-7 membranes; remark: listed apart in the source
[14] = molecular target: human Y5 receptor (human) (UniProt Q15761); assay: cell-based or functional assay
[15] = molecular target: human Y5 receptor (human) (UniProt Q15761); assay: 125I-PYY displacement, COS-7 membranes; remark: listed apart in the source
[16] = molecular target: rat hypothalamic membranes (NPY/PYY binding sites); assay: 125I-PYY displacement, rat hypothalamic membranes, low-affinity part
[17] = molecular target: rat hypothalamic membranes (NPY/PYY binding sites); assay: 125I-PYY3-36 displacement, rat hypothalamic membranes, low-affinity part
[18] = molecular target: rat hypothalamic membranes (NPY/PYY binding sites); assay: 125I-PYY displacement, rat hypothalamic membranes, high-affinity part
[19] = molecular target: rat hypothalamic membranes (NPY/PYY binding sites); assay: 125I-PYY3-36 displacement, rat hypothalamic membranes, high-affinity part

Sequence of salmon PP (peptide) (P69092 whole entry): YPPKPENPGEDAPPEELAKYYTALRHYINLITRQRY
Sequence of human Y5 receptor (human) (Q15761 other isoform, or with tags, fused parts or gaps): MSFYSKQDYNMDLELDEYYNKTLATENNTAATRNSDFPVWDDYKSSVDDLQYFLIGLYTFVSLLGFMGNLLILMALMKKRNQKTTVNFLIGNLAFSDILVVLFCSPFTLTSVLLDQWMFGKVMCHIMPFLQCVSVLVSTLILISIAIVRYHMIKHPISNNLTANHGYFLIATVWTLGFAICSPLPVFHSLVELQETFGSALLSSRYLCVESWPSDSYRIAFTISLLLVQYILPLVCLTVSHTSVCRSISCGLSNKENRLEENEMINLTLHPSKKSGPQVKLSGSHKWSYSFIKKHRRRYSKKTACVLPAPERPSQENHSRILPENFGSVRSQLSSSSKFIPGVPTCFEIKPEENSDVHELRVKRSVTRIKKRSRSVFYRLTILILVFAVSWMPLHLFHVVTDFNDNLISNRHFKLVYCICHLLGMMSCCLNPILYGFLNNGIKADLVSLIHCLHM
Sequence of rat Y1 receptor (rat) (P21555 whole entry): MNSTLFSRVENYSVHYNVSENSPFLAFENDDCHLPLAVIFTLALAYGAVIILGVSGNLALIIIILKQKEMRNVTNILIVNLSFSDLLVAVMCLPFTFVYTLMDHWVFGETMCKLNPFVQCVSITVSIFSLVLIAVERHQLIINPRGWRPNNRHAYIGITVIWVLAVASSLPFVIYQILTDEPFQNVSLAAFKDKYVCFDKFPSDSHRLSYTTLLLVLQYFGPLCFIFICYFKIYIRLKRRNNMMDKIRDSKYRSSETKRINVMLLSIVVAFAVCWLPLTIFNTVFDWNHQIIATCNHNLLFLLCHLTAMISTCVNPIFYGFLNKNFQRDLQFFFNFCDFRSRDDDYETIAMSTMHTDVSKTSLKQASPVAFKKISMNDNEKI

Ki [1]: 260 nM
Ki (rat Y1 receptor (rat)): 140 nM
Ki (rat Y4 receptor (rat)): 22 nM
Ki (rat Y2 receptor (rat)): 2.6 nM
EC50, inhibition of forskolin-stimulated cAMP accumulation, 293 cells [2]: 240 nM
Ki [3]: 370 nM
Ki [4]: 260 nM
Ki [5]: 220 nM
Ki [6]: 300 nM
Ki [7]: 79 nM
Ki [8]: 470 nM
Ki [9]: 120 nM
Ki [10]: 3.5 nM
Substance: porcine C2-NPY (peptide)

% NPY-produced displacement [11]: 100%
IC50 [11]: 2.3 nM
% NPY-produced displacement [12]: 100%
IC50 [12]: 1.2 nM
Substance: human NPY2-36 (from UniProt P01303 30-64) (peptide)

Ki (rat Y1 receptor (rat)): 0.3 nM
Ki (rat Y4 receptor (rat)): 3 nM
Ki [13]: 0.00033 µM
Ki (rat Y2 receptor (rat)): 0.16 nM
% inhibition relative to human NPY, cAMP, LM(tk-) cells [14]: 96%
EC50, inhibition of forskolin-stimulated cAMP accumulation, LM(tk-) cells [14]: 4.5 nM
EC50, inhibition of forskolin-stimulated cAMP accumulation, 293 cells [2]: 0.92 nM
Ki [3]: 0.27 nM
Ki [5]: 0.63 nM
Ki [15]: 0.46 nM
Ki [7]: 0.11 nM
Ki [8]: 0.31 nM
Ki [9]: 3.2 nM
Ki [10]: 0.17 nM
Substance: salmon PP (peptide)

Ki (rat Y4 receptor (rat)): 5 nM
Substance: human NPY2-36, P01303 30-64 (peptide; other documents disagree on this pair)

Ki (rat Y4 receptor (rat)): 36 nM
Substance: porcine NPY3-36, P01304 12-45 (peptide; other documents disagree on this pair)

% NPY-produced displacement [11]: 20%
Substance: human PP (from UniProt P01298 30-65) (peptide)

% NPY-produced displacement [11]: 100%
IC50 [11]: 0.82 nM
% NPY-produced displacement [12]: 100%
Substance: rat/human NPY (from UniProt P01303 29-64) (peptide)

Ki (rat Y4 receptor (rat)): 1.7 nM
Substance: rat/human NPY, P01303 29-64 (peptide; C-terminal amide; other documents disagree on this pair)

% NPY-produced displacement [16]: 56%
IC50 [16]: 340 nM
% NPY-produced displacement [17]: 73%
IC50 [17]: 250 nM
% NPY-produced displacement [18]: 44%
IC50 [18]: 0.21 nM
% NPY-produced displacement [19]: 27%
IC50 [19]: 0.38 nM
Substance: human [Leu^31, Pro^34]NPY (from UniProt P01303 29-64) (peptide)

% NPY-produced displacement [11]: 100%
% NPY-produced displacement [12]: 100%
IC50 [12]: 0.29 nM
Substance: human PYY (from UniProt P10082 29-64) (peptide)

Ki [13]: 8.7 µM
Substance: W(nor-L)RF-amide (peptide)
